Data as given in US20140302043A1.

Assays:
Assay in all cases: cell-based or functional assay
[1] = target: hemagglutinin (HA) of H1N1 virus strain A/Auckland/65/2001 (influenza A virus H1N1, A/Auckland/65/2001)
[2] = target: hemagglutinin (HA) of H1N1 virus strain A/Bangkok/163/2000 (influenza A virus H1N1, A/Bangkok/163/2000)
[3] = target: hemagglutinin (HA) of H1N1 virus strain A/Beijing/262/1995 (influenza A virus H1N1, A/Beijing/262/1995)
[4] = target: hemagglutinin (HA) of H1N1 virus strain A/Brisbane/59/2007 (influenza A virus H1N1, A/Brisbane/59/2007)
[5] = target: hemagglutinin (HA) of H1N1 virus strain A/Canada/59/2004 (influenza A virus H1N1, A/Canada/59/2004)
[6] = target: hemagglutinin (HA) of H1N1 virus strain A/Chile/8885/2001 (influenza A virus H1N1, A/Chile/8885/2001)
[7] = target: hemagglutinin (HA) of H1N1 virus strain A/Florida/2/1993 (influenza A virus H1N1, A/Florida/2/1993)
[8] = target: hemagglutinin (HA) of H1N1 virus strain A/Fujian/156/2000 (influenza A virus H1N1, A/Fujian/156/2000)
[9] = target: hemagglutinin (HA) of H1N1 virus strain A/Johannesburg/159/1997 (influenza A virus H1N1, A/Johannesburg/159/1997)
[10] = target: hemagglutinin (HA) of H1N1 virus strain A/Kawasaki/6/1986 (influenza A virus H1N1, A/Kawasaki/6/1986)
[11] = target: hemagglutinin (HA) of H1N1 virus strain A/Moscow/13/1998 (influenza A virus H1N1, A/Moscow/13/1998)
[12] = target: hemagglutinin (HA) of H1N1 virus strain A/Neimenggu/52/2002 (influenza A virus H1N1, A/Neimenggu/52/2002)
[13] = target: hemagglutinin (HA) of H1N1 virus strain A/New Caledonia/22/1999 (influenza A virus H1N1, A/New Caledonia/22/1999)
[14] = target: hemagglutinin (HA) of H1N1 virus strain A/Ostrava/801/1998 (influenza A virus H1N1, A/Ostrava/801/1998)
[15] = target: hemagglutinin (HA) of H1N1 virus strain A/Shanghai/2/1997 (influenza A virus H1N1, A/Shanghai/2/1997)
[16] = target: hemagglutinin (HA) of H1N1 virus strain A/Shengzhen/227/1995 (influenza A virus H1N1, A/Shengzhen/227/1995)
[17] = target: hemagglutinin (HA) of H1N1 virus strain A/Solomon islands/03/2006, on virus (influenza A virus H1N1, A/Solomon Islands/03/2006)
[18] = target: hemagglutinin (HA) of H1N1 virus strain A/USSR/90/1977 (influenza A virus H1N1, A/USSR/90/1977)

Row | Substance | mAb minimum effective concentration (EC99, microneutralization on MDCK cells) [1] [µg/mL] | mAb minimum effective concentration (EC99, microneutralization on MDCK cells) [2] [µg/mL] | mAb minimum effective concentration (EC99, microneutralization on MDCK cells) [3] [µg/mL] | mAb minimum effective concentration (EC99, microneutralization on MDCK cells) [4] [µg/mL] | mAb minimum effective concentration (EC99, microneutralization on MDCK cells) [5] [µg/mL] | mAb minimum effective concentration (EC99, microneutralization on MDCK cells) [6] [µg/mL] | mAb minimum effective concentration (EC99, microneutralization on MDCK cells) [7] [µg/mL] | mAb minimum effective concentration (EC99, microneutralization on MDCK cells) [8] [µg/mL] | mAb minimum effective concentration (EC99, microneutralization on MDCK cells) [9] [µg/mL] | mAb minimum effective concentration (EC99, microneutralization on MDCK cells) [10] [µg/mL] | mAb minimum effective concentration (EC99, microneutralization on MDCK cells) [11] [µg/mL] | mAb minimum effective concentration (EC99, microneutralization on MDCK cells) [12] [µg/mL] | mAb minimum effective concentration (EC99, microneutralization on MDCK cells) [13] [µg/mL] | mAb minimum effective concentration (EC99, microneutralization on MDCK cells) [14] [µg/mL] | mAb minimum effective concentration (EC99, microneutralization on MDCK cells) [15] [µg/mL] | mAb minimum effective concentration (EC99, microneutralization on MDCK cells) [16] [µg/mL] | mAb minimum effective concentration (EC99, microneutralization on MDCK cells) [17] [µg/mL] | mAb minimum effective concentration (EC99, microneutralization on MDCK cells) [18] [µg/mL]
1 | mAb CH65, recombinant intact IgG1 (antibody) | 0.195 | 0.195 | 0.098 | 0.098 | 0.098 | 0.195 | 0.012 | 0.488 | 0.098 | 0.098 | 0.012 | 0.098 | 0.391 | 12.5 | 0.195 | 0.012 | 0.024 | 100
2 | mAb CH67 (antibody) | 0.098 | 0.098 | 0.098 | 0.98 | 0.098 | 0.098 | 0.012 | 0.049 | 0.39 | 0.39 | 0.012 | 0.098 | 0.195 |  | 0.195 | 0.024 | 0.098 | 25
